Measured values reported in PMC4497409 (2015).

Target: hFZD7 (Homo sapiens (Human), UniProt O75084)
Experiment: SPR equilibrium, Norrin immobilised, monomeric CRD analyte

B1: Norrin (protein)
chain 1: DSDPRRCMRHHYVDSISHPLYKCSSKMVLLARCEGHCSQASRSEPLVSFSTVLKQPFRSSCHCCRPQTSKLKALRLRCSGGMRLTATYRYILSCHCEECNS
chain 2: DSDPRRCMRHHYVDSISHPLYKCSSKMVLLARCEGHCSQASRSEPLVSFSTVLKQPFRSSCHCCRPQTSKLKALRLRCSGGMRLTATYRYILSCHCEECNS
Kd: > 100 µM
